Measurements as given in patent US20230357354A1, “CD38-BINDING CD31 PEPTIDES AND USES THEREOF” (ENCEFA, priority 2020, published 2023).

Tests used:
[1] = molecular target: CD38 on cells of rat midbrain cultures (rat (cultures from Wistar rat embryos)) (UniProt Q64244); test: cell-based or functional assay
[2] = molecular target: recombinant His-tagged CD38 (human) (UniProt P28907); test: Pepscan ELISA, LOOP7 array; His-tagged CD38 in solution, anti-His HRP

Sequence of CD38 on cells of rat midbrain cultures (rat (cultures from Wistar rat embryos)) (Q64244 whole entry): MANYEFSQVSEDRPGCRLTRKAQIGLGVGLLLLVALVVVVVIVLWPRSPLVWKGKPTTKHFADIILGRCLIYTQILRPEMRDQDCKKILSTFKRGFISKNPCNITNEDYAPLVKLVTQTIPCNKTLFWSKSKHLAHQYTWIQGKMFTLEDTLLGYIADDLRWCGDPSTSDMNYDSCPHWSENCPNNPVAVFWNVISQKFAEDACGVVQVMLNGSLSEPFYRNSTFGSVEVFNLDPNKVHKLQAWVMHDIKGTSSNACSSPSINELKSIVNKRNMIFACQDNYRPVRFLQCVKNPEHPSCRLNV

| EC50, prevention of MPP^+-induced DA cell loss in rat midbrain cultures [1] [µg/mL] | Value (Pepscan ELISA signal) [2] [mAU] | Substance |
| --- | --- | --- |
| 0.036 | – | murine sCD31 (SEQ ID NO: 18) (from UniProt Q08481 18-585) (ligand) |
| – | 651 | CD31 peptide CEYOVLVEC (LOOP7) |
